Results taken from patent US10973880B2, “Compositions and methods for treating pulmonary hypertension” (Acceleron Pharma Inc., priority 2016, dated 2021).

Experiments:
activin A [1] = target: T1, activin A (Homo sapiens, UniProt P08476); assay: A-204 reporter gene assay, pGL3(CAGA)12 luciferase; type: cell-based; conditions: Example 13
T1 sequence (P08476 311-426): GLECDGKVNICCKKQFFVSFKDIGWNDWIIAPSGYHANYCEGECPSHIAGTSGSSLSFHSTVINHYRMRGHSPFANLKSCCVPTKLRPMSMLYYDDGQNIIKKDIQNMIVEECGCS
Description: An A-204 reporter gene assay was used to evaluate the effects of ActRIIB-Fc proteins and GDF traps on signaling by GDF-11 and activin A. Cell line: human rhabdomyosarcoma (derived from muscle). Reporter vector: pGL3(CAGA)12 (described in Dennler et al, 1998, EMBO 17: 3091-3100). The CAGA12 motif is present in TGF-beta responsive genes (e.g., PAI-1 gene), so this vector is of general use for factors signaling through SMAD2 and 3.
Day 1: Split A-204 cells into 48-well plate.
Day 2: A-204 cells transfected with 10 ug pGL3(CAGA)12 or pGL3(CAGA)12(10 ug)+pRLCMV (1 μg) and Fugene.
Day 3: Add factors (diluted into medium+0.1% BSA). Inhibitors need to be preincubated with factors for 1 hr before adding to cells. Six hrs later, cells were rinsed with PBS and lysed.
This is followed by a luciferase assay.
(§1) In addition, an A-204 Reporter Gene Assay was used to evaluate the effects of ALK4-Fc:ActRIIB-Fc heterodimer and ActRIIB-Fc:ActRIIB-Fc homodimer on signaling by activin A, activin B, GDF11, GDF8, BMP10, and BMP9. Cell line: Human Rhabdomyosarcoma (derived from muscle). Reporter vector: pGL3(CAGA)12 (as described in Dennler et al, 1998, EMBO 17: 3091-3100). The CAGA12 motif is present in TGFβ responsive genes (PAI-1 gene), so this vector is of general use for factors signaling through Smad2 and 3. An exemplary A-204 Reporter Gene Assay is outlined below. • Day 1: Split A-204 cells into 48-well plate. • Day 2: A-204 cells transfected with 10 ug pGL3(CAGA)12 or pGL3(CAGA)12(10 ug)+pRLCMV (1 ug) and Fugene. • Day 3: Add factors (diluted into medium+0.1% BSA). Inhibitors need to be pre-incubated with Factors for about one hr before adding to cells. About six hrs later, cells are rinsed with PBS and then lysed.
(§2) Following the above steps, a Luciferase assay was performed.

BMP10 = target: T2, BMP10 (Homo sapiens, UniProt O95393); assay: Biacore-based binding assay, receptor captured with anti-Fc antibody
T2 sequence (O95393 317-424): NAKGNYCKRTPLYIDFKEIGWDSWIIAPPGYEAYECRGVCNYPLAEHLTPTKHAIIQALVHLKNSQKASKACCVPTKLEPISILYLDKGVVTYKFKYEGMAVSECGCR
Protocol: (§3) A Biacore™-based binding assay was used to compare ligand binding selectivity of the ALK4-Fc:ActRIIB-Fc heterodimeric complex described above with that of ActRIIB-Fc and ALK4-Fc homodimer complexes. The ALK4-Fc:ActRIIB-Fc heterodimer, ActRIIB-Fc homodimer, and ALK4-Fc homodimer were independently captured onto the system using an anti-Fc antibody. Ligands were injected and allowed to flow over the captured receptor protein. Results are summarized in the table below, in which ligand off-rates (kd) most indicative of effective ligand traps are denoted in bold font.

BMP6 = target: T3, BMP6 (Homo sapiens, UniProt P22004); assay: as above
T3 sequence (P22004 375-513): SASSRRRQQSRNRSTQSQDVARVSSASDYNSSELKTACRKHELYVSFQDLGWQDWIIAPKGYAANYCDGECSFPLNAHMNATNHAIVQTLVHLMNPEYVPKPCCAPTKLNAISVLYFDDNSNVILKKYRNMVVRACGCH
Protocol: as §3

BMP9 = target: T4, BMP9 (Homo sapiens, UniProt Q9UK05); assay: as above
T4 sequence (Q9UK05 320-429): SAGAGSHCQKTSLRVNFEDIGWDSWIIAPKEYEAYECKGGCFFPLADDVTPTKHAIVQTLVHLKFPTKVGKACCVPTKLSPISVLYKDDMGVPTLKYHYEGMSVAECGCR
Protocol: as §3

GDF11 = target: T5, GDF11 (Homo sapiens, UniProt O95390); assay: as above
T5 sequence (O95390 299-407): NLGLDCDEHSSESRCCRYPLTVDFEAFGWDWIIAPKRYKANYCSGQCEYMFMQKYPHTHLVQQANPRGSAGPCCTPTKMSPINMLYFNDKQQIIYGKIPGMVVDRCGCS
Protocol: as §3

GDF3 = target: T6, GDF3 (Homo sapiens, UniProt Q9NR23); assay: as above
T6 sequence (Q9NR23 251-364): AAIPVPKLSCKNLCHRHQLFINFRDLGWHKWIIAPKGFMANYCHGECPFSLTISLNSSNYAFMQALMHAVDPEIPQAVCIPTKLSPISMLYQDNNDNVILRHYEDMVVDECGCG
Protocol: as §3

GDF8 [2] = target: T7, GDF8 (Homo sapiens, UniProt O14793); assay: as above
T7 sequence (O14793 267-375): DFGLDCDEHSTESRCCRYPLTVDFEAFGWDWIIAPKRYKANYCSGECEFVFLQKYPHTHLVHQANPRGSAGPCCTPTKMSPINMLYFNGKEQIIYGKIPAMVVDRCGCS
Protocol: as §3

activin A [3] = target: T1, activin A; assay: as above
Protocol: as §3

activin B = target: T8, activin B (Homo sapiens, UniProt P09529); assay: as above
T8 sequence (P09529 293-407): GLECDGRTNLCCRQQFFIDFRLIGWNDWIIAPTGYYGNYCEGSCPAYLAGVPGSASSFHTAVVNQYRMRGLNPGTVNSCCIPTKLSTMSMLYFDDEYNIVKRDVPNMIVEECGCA
Protocol: as §3

GDF8 [4] = target: T7, GDF8; assay: A-204 reporter gene assay, pGL3(CAGA)12 luciferase; type: cell-based; set-up: host or cells: exogenous factor added to A-204 cells (human rhabdomyosarcoma); conditions: Example 13
Description: Day 1: Split A-204 cells into 48-well plate. […]
as §1, §2

B1: ALK4-Fc:ActRIIB-Fc heterodimer: heteromeric complex of extracellular domains of human ActRIIB and human ALK4, each separately fused to an Fc domain with a linker (protein)
chain 1: SGPRGVQALLCACTSCLQANYTCETDGACMVSIFNLDGMEHHVRTCIPKVELVPAGKPFYCLSSEDLRNTHCCYTDYCNRIDLRVPSGHLKEPEHPSMWGPVE
chain 2: GRGEAETRECIYYNANWELERTNQSGLERCEGEQDKRLHCYASWRNSSGTIELVKKGCWLDDFNCYDRQECVATEENPQVYFCCCEGNFCNERFTHLPEAGGPEVTYEPPPTAPT
modifications: left off: a dimerising Fc or GST; small tags and cut ends
notes: heteromeric complex of extracellular domains of human ActRIIB and human ALK4, each separately fused to an Fc domain with a linker
With B1 the “inhibition of activin A signaling” value (activin A [1]) was “potent inhibitors”, the Kd (BMP10) was 0.074 nM and the “ka, BMP10” value (BMP10) was 5.6e+07 M⁻¹ s⁻¹. The “kd, BMP10” value (BMP10) was 0.0041 s⁻¹, the Kd (BMP6) was 2.7 nM and the “ka, BMP6” value (BMP6) was 2e+06 M⁻¹ s⁻¹. For the same molecule, the “kd, BMP6” value (BMP6) was 0.0055 s⁻¹, the Kd (BMP9) was 3.4 nM and the “ka, BMP9” value (BMP9) was “Transient*”. The “kd, BMP9” value (BMP9) was “Transient*”, the “ka, GDF11” value (GDF11) was 3.8e+07 M⁻¹ s⁻¹ and the “kd, GDF11” value (GDF11) was 0.00011 s⁻¹. The Kd (GDF11; † = very low signal) was 0.003 nM, the Kd (GDF3) was 4.9 nM and the “ka, GDF3” value (GDF3) was 3.4e+06 M⁻¹ s⁻¹. The “kd, GDF3” value (GDF3) was 0.017 s⁻¹, the “ka, GDF8” value (GDF8 [2]) was 390000 M⁻¹ s⁻¹ and the “kd, GDF8” value (GDF8 [2]) was 0.00021 s⁻¹. The Kd (GDF8 [2]; † = very low signal) was 0.55 nM, the “ka, Activin A” value (activin A [3]) was 1.3e+07 M⁻¹ s⁻¹ and the “kd, Activin A” value (activin A [3]) was 0.00015 s⁻¹. For the same molecule, the Kd (activin B) was 0.006 nM, the “ka, Activin B” value (activin B) was 7.1e+06 M⁻¹ s⁻¹ and the “kd, Activin B” value (activin B) was 4e-05 s⁻¹. For the same molecule, the “inhibition of GDF8 signaling” value (GDF8 [4]) was “potent inhibitors”.
